Data as given in publication doi:10.1101/2022.07.28.501818.

Molecular target: fibronectin (FN) from human plasma (human) (UniProt P02751)
Chain of UniProt P02751 (P02751 32-2477): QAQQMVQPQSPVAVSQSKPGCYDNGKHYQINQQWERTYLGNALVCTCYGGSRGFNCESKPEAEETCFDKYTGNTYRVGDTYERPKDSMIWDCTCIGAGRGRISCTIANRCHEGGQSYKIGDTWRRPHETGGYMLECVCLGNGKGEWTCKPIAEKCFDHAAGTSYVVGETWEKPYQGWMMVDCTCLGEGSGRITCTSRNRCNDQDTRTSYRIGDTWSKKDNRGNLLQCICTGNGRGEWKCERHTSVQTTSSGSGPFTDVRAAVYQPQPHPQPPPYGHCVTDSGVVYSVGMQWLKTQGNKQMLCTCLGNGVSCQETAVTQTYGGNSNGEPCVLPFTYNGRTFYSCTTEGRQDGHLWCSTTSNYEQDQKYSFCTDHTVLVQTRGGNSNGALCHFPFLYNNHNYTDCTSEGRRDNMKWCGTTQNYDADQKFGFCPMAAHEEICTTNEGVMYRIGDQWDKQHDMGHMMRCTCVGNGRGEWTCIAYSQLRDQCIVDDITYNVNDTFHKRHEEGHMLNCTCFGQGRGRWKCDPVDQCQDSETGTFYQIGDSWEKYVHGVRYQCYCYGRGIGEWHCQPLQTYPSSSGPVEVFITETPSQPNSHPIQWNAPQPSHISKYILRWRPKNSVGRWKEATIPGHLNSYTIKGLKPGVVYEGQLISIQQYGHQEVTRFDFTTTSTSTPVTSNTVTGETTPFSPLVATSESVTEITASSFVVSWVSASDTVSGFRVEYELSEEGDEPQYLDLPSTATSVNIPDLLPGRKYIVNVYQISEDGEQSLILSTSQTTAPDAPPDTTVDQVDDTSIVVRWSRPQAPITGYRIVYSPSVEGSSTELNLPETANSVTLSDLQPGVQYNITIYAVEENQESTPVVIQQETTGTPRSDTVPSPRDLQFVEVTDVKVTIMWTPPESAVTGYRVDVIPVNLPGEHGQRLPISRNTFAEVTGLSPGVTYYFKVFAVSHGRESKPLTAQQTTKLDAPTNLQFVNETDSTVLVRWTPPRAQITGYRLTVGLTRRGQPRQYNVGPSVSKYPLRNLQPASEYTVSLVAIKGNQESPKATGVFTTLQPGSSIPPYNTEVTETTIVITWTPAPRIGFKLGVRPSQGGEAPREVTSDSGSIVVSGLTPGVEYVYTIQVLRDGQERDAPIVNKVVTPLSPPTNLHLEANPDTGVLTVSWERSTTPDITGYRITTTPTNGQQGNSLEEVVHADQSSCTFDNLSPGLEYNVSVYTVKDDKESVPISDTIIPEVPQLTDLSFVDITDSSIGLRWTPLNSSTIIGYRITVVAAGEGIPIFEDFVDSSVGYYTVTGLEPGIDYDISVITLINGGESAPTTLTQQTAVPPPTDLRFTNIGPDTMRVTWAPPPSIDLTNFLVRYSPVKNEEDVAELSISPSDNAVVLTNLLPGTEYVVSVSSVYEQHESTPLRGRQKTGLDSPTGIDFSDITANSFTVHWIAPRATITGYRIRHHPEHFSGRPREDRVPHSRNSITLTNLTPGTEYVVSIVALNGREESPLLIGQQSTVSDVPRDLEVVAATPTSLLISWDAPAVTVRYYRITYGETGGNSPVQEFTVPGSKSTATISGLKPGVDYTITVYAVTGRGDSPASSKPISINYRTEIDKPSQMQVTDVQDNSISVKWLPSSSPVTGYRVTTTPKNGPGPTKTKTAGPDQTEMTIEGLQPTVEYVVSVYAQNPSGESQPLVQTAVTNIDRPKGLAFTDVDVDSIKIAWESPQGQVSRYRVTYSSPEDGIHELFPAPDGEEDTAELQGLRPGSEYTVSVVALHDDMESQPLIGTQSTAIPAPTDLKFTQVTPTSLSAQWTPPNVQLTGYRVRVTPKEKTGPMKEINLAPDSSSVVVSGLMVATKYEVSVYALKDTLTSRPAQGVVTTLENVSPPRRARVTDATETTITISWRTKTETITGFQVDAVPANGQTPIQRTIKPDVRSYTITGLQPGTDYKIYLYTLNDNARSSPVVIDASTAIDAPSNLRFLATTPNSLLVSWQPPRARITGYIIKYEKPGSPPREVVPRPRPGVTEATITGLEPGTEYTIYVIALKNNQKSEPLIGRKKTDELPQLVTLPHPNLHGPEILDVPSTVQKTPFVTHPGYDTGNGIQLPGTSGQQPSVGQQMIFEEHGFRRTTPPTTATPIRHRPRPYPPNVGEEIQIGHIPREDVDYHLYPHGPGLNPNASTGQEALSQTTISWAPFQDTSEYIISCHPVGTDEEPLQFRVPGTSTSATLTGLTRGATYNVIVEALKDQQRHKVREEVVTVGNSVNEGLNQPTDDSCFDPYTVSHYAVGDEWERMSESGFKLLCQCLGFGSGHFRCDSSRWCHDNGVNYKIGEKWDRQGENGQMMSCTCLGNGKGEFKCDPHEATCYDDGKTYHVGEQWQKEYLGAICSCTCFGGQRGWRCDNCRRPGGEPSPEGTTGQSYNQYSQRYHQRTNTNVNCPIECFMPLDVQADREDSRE

surface density of BMP-2 on PEA-FN: 8 ng/cm2
B1: BMP-2 (bone morphogenetic protein 2) (ligand)
chain: QAKHKQRKRLKSSCKRHPLYVDFSDVGWNDWIVAPPGYHAFYCHGECPFPLADHLNSTNHAIVQTLVNSVNSKIPKACCVPTELSAISMLYLDENEKVVLKNYQDMVVEGCGCR
